Values quoted from earlier work, collected in publication PMC6331645.

Molecular target: Raf1 RBD RBD (Homo sapiens) (UniProt P04049)

KRas (from UniProt P01116)
Kd: 20 nM
